The supplement of paper PMC12042874
± gives the uncertainty stated by the source.

experiment: amyloid nucleation score (Sup35N fusion, yeast selection) (log enrichment); library NNK3; higher = more nucleation; inactive = no reads after selection
How it was run: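 On medium lacking adenine and uracil, psi-negative yeast expressing peptides of 20 random codons fused to Sup35N were grown 7 days at 30°C after a 24-hour induction with 100 μM copper sulfate. Illumina sequencing of input and output plasmid inserts gave the reads, and sequences under 100 input reads were excluded. The nucleation score is the DiMSum log enrichment of output over input reads, centred on the mode score of non-aggregating sequences.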

Substance	amyloid nucleation score
VIRDQQIIVKCCNLVSICGI	1.32 ± 0.17
VIRLLVIAFRDHLNEVMFHK	inactive
VIRRYCAGARHYSVLEIMRE	inactive
VISYYIATGGFIDVFYCCKF	2.15 ± 0.085
VIVASVVLKW	inactive
VIVSREKSITRSNVIEWWNL	1.82 ± 0.11
VIVVREYVVWKNISMIVDYL	-0.019 ± 0.24
VIVYQKSMLHLGCSLGIAFW	inactive
VIWAVPAH	inactive
VKCQRRH	inactive
VKEPPTCVTCSAHSIRSGYS	inactive
VKFSTRNFNKVQLHVFTTCM	inactive
VKFYNLRRCVIDLMITLSRM	inactive
VKGIEVNRLMFEERISGCYV	inactive
VKKDMRRLLMFRIGGKSFGG	inactive
VKKSDWAVGLVDSDQCVHFD	inactive
VKRGFEWFCSMTHFNTSCIR	inactive
VKTINSWIRWVTLRILQVVS	inactive
VKTSQRSVTL	inactive
VLADYGTM	inactive
VLCQSHACRSHAGLCSSNKI	inactive
VLFCRFSSWV	0.739 ± 0.26
VLFRKCQCVRSHLI	inactive
VLGLFSTYDSFVCFN	inactive
VLGPGIIRTEQVLTVVRTMA	inactive
VLGPLQLRRIAHETGRCNAM	inactive
VLHGVL	inactive

Substance	amyloid nucleation score
VLIITLMYMYATFLSFYKPQ	2.59 ± 0.085
VLIKQECSQRFFDSNLNWHF	0.688 ± 0.33
VLKARMY	inactive
VLLMLLTV	inactive
VLLNLSSFMLSTFTLRMS	inactive
VLLQKGTETECGLAIVQLKW	inactive
VLLVF	inactive
VLMECSNFAVEQTARLVPVR	inactive
VLMGMRCEREFPE	inactive
VLPVHNKVNITLTVSAPWLW	inactive
VLRYWRRLGQYTAGSYPEVL	inactive
VLSSWTIK	inactive
VLTIRRFLRVSHFRNQWFPV	inactive
VLVCYC	inactive
VLVFSLISFLSWDWCSYLV	inactive
VMCGNMWVYVKSLDT	0.96 ± 0.11
VMGVPST	inactive
VMHGFVGAAKSNWKNPWHRA	inactive
VMLFY	0.845 ± 0.14
VMQYLLMAEKNQLRLQRFAR	inactive
VMSKIISTQLVDMR	inactive
VMYCYWSLIMSDSCNFMCQY	2.08 ± 0.058
VMYSGFRVILF	0.751 ± 0.15
VNCATWNLNFTRMFMACIGL	1.28 ± 0.12
VNFRIKAIVVSLRGYDWLSG	0.287 ± 0.67
VNGNVDKFQKSKSLGTFVTT	inactive
VNNKIVVWTIMSSNDERLPS	1.54 ± 0.082

Substance	amyloid nucleation score
VNSGVGVSVRRASSLCLCVR	inactive
VNSLNHYYLIPCARFEPEG	inactive
VNTFVFTGFCMYSFVMSWLN	0.525 ± 0.2
VNWIVLSYHYNRYDVGNMAS	2.87 ± 0.074
VNYDSLPVLRPGSEGGVLFN	inactive
VNYHFYKFYGPWRVWNRTRA	1.95 ± 0.086
VNYLYPS	inactive
VNYSLQVNFVFRWARFKLWL	inactive
VPEWG	inactive
VPFVRVNDALVVVSLWDKVL	inactive
VPSQLFLHRHHCVVWIEDMW	0.827 ± 0.19
VPVRSSYMTEMYVCSGISPR	inactive
VPVVYGSCCKHRGICMYVL	inactive
VQAAKLVYHYQGSCLNRLRE	inactive
VQSMKMGPVRISKCNDKSER	inactive
VRACNRLVYRFGDTVISDKR	inactive
VRAPTYVGAWSPGEFNYRSD	inactive
VRFCGLLIGQVTWFLAVLEY	inactive
VRFLGFHKCVILAIDYDQFL	1.67 ± 0.1
VRFNSYAFYITIVGGKHTTT	2.38 ± 0.059
VRFYVAYFILFSDATAMALK	inactive
VRGLDVCTDEFCVQLDYMW	inactive
VRIKFCAWKLGYGSTGNVHI	0.657 ± 0.2
VRITSMPTFWRIEPGYLERV	inactive
VRKVSTAPAELHAIKSGDTH	inactive
